Measured values: patent publication US20110008774A1 (CORNELL RESEARCH FOUNDATION, published 2011)
Where a chain is given by its changes, count along the chain named.

B1: scFv13 variant S20 (scFv)
scFv: MADYKDDDDKGGSAEVQLVESGGGLVKPGGSLRLSCAASGFTFSNNSMNWVRQAPGKGLEWVSSISSSSSYIYYADFVKGRFTISRDNAKNSLYLQMNSLRAEDTAVYYCARSSTTIFGGGMDVWGRGTLVTVSSGGGGSGEGGSGGGGSQSVLTQPASVSGSPGQSITISCAGTSSDVGGYNYVSWYQQHPGKAPKLMIYEDSKRPSGVSNRFSGSKSGNTASLTISGLQAEDEADYYCSSYTTRSTRVFGGGTKLAVLGAAAEQKLISEGDLNGAAELHHHHHH
B2: scFv13 variant S23 (scFv)
scFv: B1 scFv with N46Y, V62I, A89V, T115I, E142G, P192L, D203G, P207S, G272E

Molecular target: AMEF β-gal (normally inactive β-galactosidase variant, AMEF 959) (E. coli)
Test: cell-based or functional assay

| Binder | AMEF β-gal activation in vivo (whole cell X-gal hydrolysis, absorbance at 620 nm) [fold over wt scFv13] |
| --- | --- |
| B1 | ~2 |
| B2 | ~2 |
